From patent US6391608 come the findings set out here.

For this data set, the system named is PleI restriction endonuclease (Pseudomonas lemoignei). Put plainly: cleavage_in_vitro. The note with it: approximate yield of recombinant PleI; five of six clones active; recognition site not given.

Take “DNA substrate with PleI sites (sequence not stated)”: the activity (units/gram of cells) was found to be 100000.
